Where no end group is shown, it is not given here. [ ]: non-standard residue; d: D form. Aib = CC(C)(N)C(=O)O
T1: human glucose-dependent insulinotropic polypeptide receptor (human, UniProt P48546 22-466)
T1 sequence (looked up): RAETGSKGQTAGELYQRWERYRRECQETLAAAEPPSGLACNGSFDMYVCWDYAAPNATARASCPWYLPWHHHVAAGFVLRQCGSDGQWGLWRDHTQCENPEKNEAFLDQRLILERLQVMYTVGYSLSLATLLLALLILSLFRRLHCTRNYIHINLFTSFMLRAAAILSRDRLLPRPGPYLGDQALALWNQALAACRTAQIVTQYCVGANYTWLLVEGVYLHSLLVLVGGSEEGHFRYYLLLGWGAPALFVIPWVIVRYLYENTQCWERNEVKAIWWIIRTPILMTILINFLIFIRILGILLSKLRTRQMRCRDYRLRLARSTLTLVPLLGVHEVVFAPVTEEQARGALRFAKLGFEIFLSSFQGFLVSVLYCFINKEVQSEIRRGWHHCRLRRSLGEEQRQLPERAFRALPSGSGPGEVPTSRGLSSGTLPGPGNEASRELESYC

B1: Compound No. 35 (peptide)
peptide: H[Aib]HGTFTSDYSIYLEKQKA[Aib]EFVQWLLEGGPSSGAPPPS-NH2
modifications: not fully specified (residue 16); printed as H-Aib-HGTFTSDYSIYLE-K[(2S)-2-amino-6-[[(2S)-2-amino-6-[[(4S)-4-carboxy-4-(19-carboxynonadecanoylamino)butanoyl]amino]hexanoyl]amino]hexanoyl]-QKA-Aib-EFVQWLLEGGPSSGAPPPS-NH2
B2: Compound No. 26 (peptide)
peptide: H[Aib]HGTFTSDYSYYLEKQAA[Aib]EFVQWLLEGGPSSGAPPPS-NH2
modifications: not fully specified (residue 16); printed as H-Aib-HGTFTSDYSYYLE-K[(2S)-2-amino-6-[[(2S)-2-amino-6-[[(4S)-4-carboxy-4-(19-carboxynonadecanoylamino)butanoyl]amino]hexanoyl]amino]hexanoyl]-QAA-Aib-EFVQWLLEGGPSSGAPPPS-NH2
B3: Compound No. 34 (peptide)
peptide: H[Aib]HGTFTSDYSIYLEKKAA[Aib]EFVQWLLEGGPSSGAPPPS-NH2
modifications: not fully specified (residue 16); printed as H-Aib-HGTFTSDYSIYLE-K[2-[2-[2-[[2-[2-[2-[[(4S)-4-carboxy-4-(19-carboxynonadecanoylamino)butanoyl]amino]ethoxy]ethoxy]acetyl]amino]ethoxy]ethoxy]acetyl]-KAA-Aib-EFVQWLLEGGPSSGAPPPS-NH2
B4: Compound No. 28 (peptide)
peptide: H[Aib]HGTFTSDYSIYLDKQAA[Aib]EFVQWLLEGGPSSGAPPPS-NH2
modifications: not fully specified (residue 16); printed as H-Aib-HGTFTSDYSIYLD-K[(2S)-2-amino-6-[[(2S)-2-amino-6-[[(4S)-4-carboxy-4-(19-carboxynonadecanoylamino)butanoyl]amino]hexanoyl]amino]hexanoyl]-QAA-Aib-EFVQWLLEGGPSSGAPPPS-NH2
B5: Compound No. 27 (peptide)
peptide: H[Aib]HGTFTSDYSIYLEKQAAEEFVQWLLEGGPSSGAPPPS-NH2
modifications: not fully specified (residue 16); printed as H-Aib-HGTFTSDYSIYLE-K[(2S)-2-amino-6-[[(2S)-2-amino-6-[[(4S)-4-carboxy-4-(19-carboxynonadecanoylamino)butanoyl]amino]hexanoyl]amino]hexanoyl]-QAAEEFVQWLLEGGPSSGAPPPS-NH2
B6: Compound No. 32 (peptide)
peptide: H[Aib]HGTFTSDYSYYLEKQAA[Aib]EFVQWLLEGGPSSGAPPPS-NH2
modifications: not fully specified (residue 16); printed as H-Aib-HGTFTSDYSYYLE-K[(2S)-2-amino-6-[[(2S)-2-amino-6-[[(4S)-4-carboxy-4-(17-carboxyheptadecanoylamino)butanoyl]amino]hexanoyl]amino]hexanoyl]-QAA-Aib-EFVQWLLEGGPSSGAPPPS-NH2
B7: Compound No. 19 (peptide)
peptide: H[Aib]QGTFTSDYSIYLEKQAA[Aib]EFVQWLLEGGPSSGAPPPS-NH2
modifications: not fully specified (residue 16); printed as H-Aib-QGTFTSDYSIYLE-K[(2S)-2-amino-6-[[(2S)-2-amino-6-[[(4S)-4-carboxy-4-(19-carboxynonadecanoylamino)butanoyl]amino]hexanoyl]amino]hexanoyl]-QAA-Aib-EFVQWLLEGGPSSGAPPPS-NH2
B8: Compound No. 29 (peptide)
peptide: H[Aib]HGTFTSDYSYYLEKQYA[Aib]EFVQWLLEGGPSSGAPPPS-NH2
modifications: not fully specified (residue 16); printed as H-Aib-HGTFTSDYSYYLE-K[(2S)-2-amino-6-[[(2S)-2-amino-6-[[(4S)-4-carboxy-4-(19-carboxynonadecanoylamino)butanoyl]amino]hexanoyl]amino]hexanoyl]-QYA-Aib-EFVQWLLEGGPSSGAPPPS-NH2
B9: Compound No. 23 (peptide)
peptide: H[Aib]HGTFTSDYSIYLEKQAAQEFVQWLLEGGPSSGAPPPS-NH2
modifications: not fully specified (residue 16); printed as H-Aib-HGTFTSDYSIYLE-K[(2S)-2-amino-6-[[(2S)-2-amino-6-[[(4S)-4-carboxy-4-[[4-[(19-carboxynonadecanoylamino)methyl]cyclohexanecarbonyl]amino]butanoyl]amino]hexanoyl]amino]hexanoyl]-QAAQEFVQWLLEGGPSSGAPPPS-NH2
B10: Compound No. 20 (peptide)
peptide: Y[Aib]QGTFTSDYSIYLEKQAAQEFVQWLLEGGPSSGAPPPS-NH2
modifications: not fully specified (residue 16); printed as Y-Aib-QGTFTSDYSIYLE-K[2-[2-[2-[[2-[2-[2-[[(4S)-4-carboxy-4-[[4-[(19-carboxynonadecanoylamino)methyl]cyclohexanecarbonyl]amino]butanoyl]amino]ethoxy]ethoxy]acetyl]amino]ethoxy]ethoxy]acetyl]-QAAQEFVQWLLEGGPSSGAPPPS-NH2
B11: Compound No. 31 (peptide)
peptide: H[Aib]HGTFTSDYSYYLEKKAA[Aib]EFVQWLLEGGPSSGAPPPS-NH2
modifications: not fully specified (residue 16); printed as H-Aib-HGTFTSDYSYYLE-K[(2S)-2-amino-6-[[(2S)-2-amino-6-[[(4S)-4-carboxy-4-(19-carboxynonadecanoylamino)butanoyl]amino]hexanoyl]amino]hexanoyl]-KAA-Aib-EFVQWLLEGGPSSGAPPPS-NH2
B12: Compound No. 25 (peptide)
peptide: H[Aib]HGTFTSDYSYYLEKQAA[Aib]EFVQWLLEGGPSSGAPPPS-NH2
modifications: not fully specified (residue 16); printed as H-Aib-HGTFTSDYSYYLE-K[(2S)-2-amino-6-[[(2S)-2-amino-6-[[(4S)-4-carboxy-4-[[4-[(19-carboxynonadecanoylamino)methyl]cyclohexanecarbonyl]amino]butanoyl]amino]hexanoyl]amino]hexanoyl]-QAA-Aib-EFVQWLLEGGPSSGAPPPS-NH2
B13: Compound No. 24 (peptide)
peptide: H[Aib]HGTFTSDYSIYLEKQYA[Aib]EFVQWLLEGGPSSGAPPPS-NH2
modifications: not fully specified (residue 16); printed as H-Aib-HGTFTSDYSIYLE-K[(2S)-2-amino-6-[[(2S)-2-amino-6-[[(4S)-4-carboxy-4-(19-carboxynonadecanoylamino)butanoyl]amino]hexanoyl]amino]hexanoyl]-QYA-Aib-EFVQWLLEGGPSSGAPPPS-NH2
B14: Compound No. 22 (peptide)
peptide: H[Aib]HGTFTSDYSIYLEKQAA[Aib]EFVQWLLEGGPSSGAPPPS-NH2
modifications: not fully specified (residue 16); printed as H-Aib-HGTFTSDYSIYLE-K[(2S)-2-amino-6-[[(2S)-2-amino-6-[[(4S)-4-carboxy-4-(19-carboxynonadecanoylamino)butanoyl]amino]hexanoyl]amino]hexanoyl]-QAA-Aib-EFVQWLLEGGPSSGAPPPS-NH2

Each binder was assayed against human glucagon receptor (human, UniProt P47871 26-477) (assay: cell-based or functional assay).
Sequence of human glucagon receptor (P47871 26-477): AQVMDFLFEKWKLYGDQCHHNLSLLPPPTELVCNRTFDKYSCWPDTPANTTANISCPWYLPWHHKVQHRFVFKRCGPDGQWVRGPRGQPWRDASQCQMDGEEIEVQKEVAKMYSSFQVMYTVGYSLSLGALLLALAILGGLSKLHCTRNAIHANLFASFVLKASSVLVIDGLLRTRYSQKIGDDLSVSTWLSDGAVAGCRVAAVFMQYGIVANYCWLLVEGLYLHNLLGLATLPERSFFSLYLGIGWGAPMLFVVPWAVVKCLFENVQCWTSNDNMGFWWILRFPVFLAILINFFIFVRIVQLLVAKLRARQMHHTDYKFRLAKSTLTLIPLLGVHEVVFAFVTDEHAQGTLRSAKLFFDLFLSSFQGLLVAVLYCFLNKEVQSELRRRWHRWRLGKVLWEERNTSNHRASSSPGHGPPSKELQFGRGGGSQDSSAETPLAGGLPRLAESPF

Binder | hGcgR CRE Luc EC50 (pM)
B1 | 5 pM
B2 | 13.6 pM
B3 | 24.7 pM
B4 | 16.7 pM
B5 | 55 pM
B6 | 10.3 pM
B7 | 357 pM
B8 | 9.6 pM
B9 | 18.3 pM
B10 | 147 pM
B11 | 7.7 pM
B12 | 25.2 pM
B13 | 13.1 pM
B14 | 48.7 pM

Each binder was assayed against human glucagon-like peptide 1 receptor (human, UniProt P43220 24-463) (assay: cell-based or functional assay).

Binder | hGLP-1R CRE Luc EC50 (pM)
B1 | 5.2 pM
B2 | 3.1 pM
B3 | 2.6 pM
B4 | 4.5 pM
B5 | 0.8 pM
B6 | 1.6 pM
B7 | 1.7 pM
B8 | 5.8 pM
B9 | 2 pM
B10 | 5.1 pM
B11 | 3 pM
B12 | 4.6 pM
B13 | 6.8 pM
B14 | 2 pM

Each binder was assayed against T1, human glucose-dependent insulinotropic … (assay: cell-based or functional assay).

Binder | hGIPR CRE Luc EC50 (pM)
B1 | 13.9 pM
B2 | 6.5 pM
B3 | 8.7 pM
B4 | 7.7 pM
B5 | 2.5 pM
B6 | 3.5 pM
B7 | 55 pM
B8 | 7.2 pM
B9 | 5.1 pM
B10 | 8.1 pM
B11 | 9 pM
B12 | 6.9 pM
B13 | 7.7 pM
B14 | 7.1 pM

Reference: patent US20230391845A1, “GLP-1, GIP AND GLUCAGON RECEPTOR TRIPLE AGONISTS” (priority 2020, published 2023)
